Paper PMC4488245
pKd: −log10 of the molar value.

Key:
[1] = tested on: TcP37/NRBD (Trypanosoma cruzi CL Brener); experiment: filter binding; settings: 10 mM Tris pH 7.4, 1 mM EDTA, 100 mM NaCl, 0.1% NP40, 100 ug/mL BSA; room temperature, 30 min; 0.5 fmol RNA in 50 ul, 0-500 nM protein
[2] = tested on: TcL5 (ribosomal protein L5) (Trypanosoma cruzi CL Brener); experiment: filter binding; settings: 10 mM Tris pH 7.4, 1 mM EDTA, 100 mM NaCl, 0.1% NP40, 100 ug/mL BSA; room temperature, 30 min; 0.5 fmol RNA in 50 ul, 0-500 nM protein
[3] = biological target: TcP37/NRBD (T. cruzi (endogenous in CL Brener epimastigotes)); experiment: co-IP; anti-P34/P37 antibody cross-linked to Protein A Dynabeads, 1 mg epimastigote whole cell extract, 4°C overnight, washed in PBS-T; pellet and supernatant blotted with anti-TcL5 peptide antibody; extracts with or without RNase A (20 U/ml, 1 hour, 37°C)
rTcL5 (T. cruzi) = experiment: co-IP; 500 ng rTcP37/NRBD and 500 ng rTcL5, with or without 500 ng in vitro transcribed Tc 5S rRNA, applied to TcL5 antibody cross-linked Dynabeads; eluate and supernatant blotted with P34/P37 antibodies

In the case of Tc 5S rRNA, the pKd [1] was 7.20 and the pKd [2] was 7.96.

TcL5 (natural protein) showed a decrease of the association after RNase A treatment of the extract [3] of 74%.

rTcP37/NRBD (natural protein) gave an increase of the association in the presence of 5S rRNA (rTcL5 (T. cruzi)) of 62%.
